# Assay results published in patent US20220195455.
# T1: LANCL2 octapeptide GETMSKRL
# T1 chain: GETMSKRL
# T2: LNP octapeptide GGLFSRWR
# T2 chain: GGLFSRWR
# T3: MARCKS octapeptide GAQFSKTA
# T3 chain: GAQFSKTA
# T4: Src8(G2A) mutant octapeptide Ala-Ser-Asn-Lys-Ser-Lys-Pro-Lys
# T4 chain: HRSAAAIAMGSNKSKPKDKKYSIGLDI
# T5: FRS2 octapeptide GSCCSCPD
# T5 chain: GSCCSCPD
# T6: NDUFB7 octapeptide GAHLVRRY
# T6 chain: GAHLVRRY
# T7: ARL2 octapeptide GLLTILKK
# T7 chain: GLLTILKK
# T8: PSMC1 octapeptide GQSQSGGH
# T8 chain: GQSQSGGH
# T9: DDX46 octapeptide GRESRHYR
# T9 chain: GRESRHYR
# T10: YES1 octapeptide GCIKSKEN
# T10 chain: GCIKSKEN
# T11: RP2 octapeptide GCFFSKRR
# T11 chain: GCFFSKRR
# T12: GNAZ octapeptide GCRQSSEE
# T12 chain: GCRQSSEE
# T13: REP15 octapeptide GQKASQQL
# T13 chain: GQKASQQL
# T14: ARF6 octapeptide GKVLSKIF
# T14 chain: GKVLSKIF
# T15: ZNRF2 octapeptide GAKQSGPA
# T15 chain: GAKQSGPA
# T16: SCYL3 octapeptide GSENSALK
# T16 chain: GSENSALK
# T17: NDUFAF4 octapeptide GALVIRGI
# T17 chain: GALVIRGI
# T18: ARL6 octapeptide GLLDRLSV
# T18 chain: GLLDRLSV
# T19: NAA40 octapeptide GRKSSKAK
# T19 chain: GRKSSKAK
# T20: NOL3 octapeptide GNAQERPS
# T20 chain: GNAQERPS
# T21: MARCKSL1 octapeptide GSQSSKAP
# T21 chain: GSQSSKAP
# T22: RNF11 octapeptide GNCLKSPT
# T22 chain: GNCLKSPT
# T23: DEGS1 octapeptide GSRVSRED
# T23 chain: GSRVSRED
# T24: LYN octapeptide GCIKSKGK
# T24 chain: GCIKSKGK
# T25: FYN octapeptide GCVQCKDK
# T25 chain: GCVQCKDK
# Key:
# [1] = biological target: T1, LANCL2 octapeptide GETMSKRL
# LNP octapeptide GGLFSRWR = biological target: T2, LNP octapeptide GGLFSRWR
# [2] = biological target: T3, MARCKS octapeptide GAQFSKTA
# [3] = biological target: T4, Src8(G2A) mutant octapeptide …
# [4] = biological target: T5, FRS2 octapeptide GSCCSCPD
# [5] = biological target: T6, NDUFB7 octapeptide GAHLVRRY
# [6] = biological target: T7, ARL2 octapeptide GLLTILKK
# [7] = biological target: T8, PSMC1 octapeptide GQSQSGGH
# [8] = biological target: T9, DDX46 octapeptide GRESRHYR
# [9] = biological target: T10, YES1 octapeptide GCIKSKEN
# RP2 octapeptide GCFFSKRR = biological target: T11, RP2 octapeptide GCFFSKRR
# [10] = biological target: T12, GNAZ octapeptide GCRQSSEE
# [11] = biological target: T13, REP15 octapeptide GQKASQQL
# [12] = biological target: T14, ARF6 octapeptide GKVLSKIF
# [13] = biological target: T15, ZNRF2 octapeptide GAKQSGPA
# [14] = biological target: T16, SCYL3 octapeptide GSENSALK
# [15] = biological target: T17, NDUFAF4 octapeptide GALVIRGI
# [16] = biological target: T18, ARL6 octapeptide GLLDRLSV
# [17] = biological target: T19, NAA40 octapeptide GRKSSKAK
# [18] = biological target: T20, NOL3 octapeptide GNAQERPS
# [19] = biological target: T21, MARCKSL1 octapeptide GSQSSKAP
# [20] = biological target: T22, RNF11 octapeptide GNCLKSPT
# [21] = biological target: T23, DEGS1 octapeptide GSRVSRED
# LYN octapeptide GCIKSKGK = biological target: T24, LYN octapeptide GCIKSKGK
# FYN octapeptide GCVQCKDK = biological target: T25, FYN octapeptide GCVQCKDK
protein,measurement,setting,value
"N-myristoyltransferase 1, full length (protein) MADESETAVKPPAPPLPQMMEGNGNGHEHCSDCENEEDNSYNRGGLSPANDTGAKKKKKKQKKKKEKGSETDSAQDQPVKMNSLPAERIQEIQKAIELFSVGQGPAKTMEEASKRSYQFWDTQPVPKLGEVVNTHGPVEPDKDNIRQEPYTLPQGFTWDALDLGDRGVLKELYTLLNENYVEDDDNMFRFDYSPEFLLWALRPPGWLPQWHCGVRVVSSRKLVGFISAIPANIHIYDTEKKMVEINFLCVHKKLRSKRVAPVLIREITRRVHLEGIFQAVYTAGVVLPKPVGTCRYWHRSLNPRKLIEVKFSHLSRNMTMQRTMKLYRLPETPKTAGLRPMETKDIPVVHQLLTRYLKQFHLTPVMSQEEVEHWFYPQENIIDTFVVENANGEVTDFLSFYTLPSTIMNHPTHKSLKAAYSFYNVHTQTPLLDLMSDALVLAKMKGFDVFNALDLMENKTFLEKLKFGIGDGNLQYYLYNWKCPSMGAEKVGLVLQ",Km,[1],13 µM
same,Vmax,[1],5.3 µM/min
same,Km,LNP octapeptide GGLFSRWR,10.3 µM
same,Vmax,LNP octapeptide GGLFSRWR,21.9 µM/min
same,Km,[2],38.4 µM
same,Vmax,[2],6.4 µM/min
same,Km,[3],< 0.1 µM
same,Vmax,[3],1 µM/min
same,Km,[4],28.2 µM
same,Vmax,[4],54.7 µM/min
same,Km,[5],16.4 µM
same,Vmax,[5],2.8 µM/min
same,Km,[6],0.4 µM
same,Vmax,[6],1.2 µM/min
same,Km,[7],40 µM
same,Vmax,[7],9.6 µM/min
same,Km,[8],< 0.1 µM
same,Vmax,[8],2 µM/min
same,Km,[9],14.4 µM
same,Vmax,[9],61 µM/min
same,Km,RP2 octapeptide GCFFSKRR,13.6 µM
same,Vmax,RP2 octapeptide GCFFSKRR,60.8 µM/min
same,Km,[10],15.7 µM
same,Vmax,[10],64.4 µM/min
same,Km,[11],15.7 µM
same,Vmax,[11],3.4 µM/min
same,Km,[12],4.4 µM
same,Vmax,[12],13.6 µM/min
same,Km,[13],2 µM
same,Vmax,[13],1.6 µM/min
same,Km,[14],0.8 µM
same,Vmax,[14],1.7 µM/min
same,Km,[15],0.5 µM
same,Vmax,[15],1.2 µM/min
same,Km,[16],< 0.1 µM
same,Vmax,[16],1.8 µM/min
same,Km,[17],1.2 µM
same,Vmax,[17],1.8 µM/min
same,Km,[18],1.4 µM
same,Vmax,[18],2 µM/min
same,Km,[19],11.7 µM
same,Vmax,[19],6.6 µM/min
same,Km,[20],16.7 µM
same,Vmax,[20],61.1 µM/min
same,Km,[21],79.2 µM
same,Vmax,[21],12.9 µM/min
same,Km,LYN octapeptide GCIKSKGK,22.5 µM
same,Vmax,LYN octapeptide GCIKSKGK,64.7 µM/min
same,Km,FYN octapeptide GCVQCKDK,5.2 µM
same,Vmax,FYN octapeptide GCVQCKDK,54.9 µM/min
